In patent US8680241B2 (priority 2009, dated 2014):

Biological target: peptide-6 (SEQ ID NO. 15) (Mycobacterium tuberculosis, UniProt P9WPE7)

B1: VH2/VK3: humanized anti-peptide-6 IgG1; heavy chain variable region SEQ ID NO: 21, light chain variable region SEQ ID NO: 26 (antibody, V domains shown)
VH: QVTLKESGPALVKPTQTLTLTCSFSGFSLSTSNMGVGWIRQPAGKGLEWLLHILWNDSKYYNPALKSRLTISKDTYKNQVVLTMTNMDPVDTATYYCARMGGYYGNYGYYAMDYWGQGTLVTVSS
VL: QIVLTQSPATLSLSPGERATLSCTASSSVSSSYLHWYQQKPGKAPKLWIYSTSNLASGVPSRFSGSGSGTDYTLTISSLQPEDFATYYCHQYHRSPPTFGQGTKLEIK
modifications: IgG1 constant regions; VH2 amino acid sequence; VK3 amino acid sequence
binding to peptide-6 directly compared to VH2/VK2 on the same plate: marginally the best binding
